Assay [1] has as its target HLA-A*02:01. Description: IEDB peptide-MHC binding, purified MHC/direct/fluorescence; filed as Kd, often an IC50 or EC50 that approximates it; ≥ and ≤ were set here for values at or beyond the usual limits of such assays.
The next assay addresses HLA-A*69:01. The assay is described as above.
The target of assay [2] is HLA-A*02:16. The description is as above. The settings on record: source organism: Listeria monocytogenes serotype 4b str. H7858.
In another assay the target is HLA-A*02:50. Description: IEDB peptide-MHC binding, purified MHC/competitive/fluorescence; filed as Kd, often an IC50 or EC50 that approximates it; ≥ and ≤ were set here for values at or beyond the usual limits of such assays.
The target in the next assay is HLA-A*24:02. Described as above. The following applies: source organism: Corynebacterium glutamicum ATCC 13032.
A further assay concerns the target HLA-A*01:01. Described as above.
Assay [3] concerns the target HLA-B*46:01. Described as above. The following applies: source organism: Corynebacterium glutamicum ATCC 13032.
Assay [4] concerns the target HLA-A*02:01. Described as above. The following applies: source organism: Corynebacterium glutamicum ATCC 13032.
In another assay the target is HLA-B*27:05. Described as above.
Assay [5] addresses HLA-A*26:01. The description is as above. The following applies: source organism: Corynebacterium glutamicum ATCC 13032.
Another assay addresses HLA-B*35:01. The assay is described as above. The settings on record: source organism: Corynebacterium glutamicum ATCC 13032.
The target in another assay is HLA-A*11:01. Described as above.
The next assay has as its target HLA-B*40:01. The assay is described as above.
The target of assay [6] is HLA-A*02:06. The assay is described as above. The following applies: source organism: Corynebacterium glutamicum ATCC 13032.
In the next assay the target is HLA-B*15:01. The assay is described as above. The settings on record: source organism: Corynebacterium glutamicum ATCC 13032.
The target of assay [7] is HLA-A*02:16. The assay is described as above. The settings on record: source organism: Corynebacterium glutamicum ATCC 13032.
Another assay deals with HLA-A*30:01. Described as above.
The target in the next assay is HLA-B*07:02. Described as above.
For assay [8], the target named is HLA-A*03:01. The description is as above. The following applies: source organism: Corynebacterium glutamicum ATCC 13032.
The next assay has as its target HLA-A*31:01. The assay is described as above. The following applies: source organism: Corynebacterium glutamicum ATCC 13032.
The next assay concerns the target HLA-B*58:01. The assay is described as above.
In the next assay the target is HLA-A*02:19. The assay is described as above. The settings on record: source organism: Corynebacterium glutamicum ATCC 13032.
For a further assay, the target named is HLA-A*02:12. The assay is described as above. The following applies: source organism: Corynebacterium glutamicum ATCC 13032.
In assay [9] the target is HLA-A*02:11. Described as above. The following applies: source organism: Corynebacterium glutamicum ATCC 13032.
The target of a further assay is HLA-A*02:03. The assay is described as above. The settings on record: source organism: Corynebacterium glutamicum ATCC 13032.
Assay [10] addresses HLA-B*18:01. The assay is described as above. The following applies: source organism: Corynebacterium glutamicum ATCC 13032.
The target in the next assay is HLA-A*29:02. Description: IEDB peptide-MHC binding, purified MHC/direct/fluorescence; filed as Kd, often an IC50 or EC50 that approximates it; ≥ and ≤ were set here for values at or beyond the usual limits of such assays. The settings on record: source organism: Yersinia pestis CA88-4125.
In a further assay the target is HLA-A*24:03. The assay is described as above. The settings on record: source organism: Yersinia pestis CA88-4125.
Assay [11] deals with HLA-B*46:01. Described as above. The following applies: source organism: Yersinia pestis CA88-4125.
Another assay has as its target HLA-B*27:03. The description is as above. The following applies: source organism: Yersinia pestis CA88-4125.
Assay [12] concerns the target HLA-A*26:01. Described as above. The settings on record: source organism: Yersinia pestis CA88-4125.
Assay [13] has as its target HLA-A*02:06. The assay is described as above. The following applies: source organism: Yersinia pestis CA88-4125.
In assay [14] the target is HLA-A*03:01. The description is as above. The following applies: source organism: Yersinia pestis CA88-4125.
A further assay addresses HLA-B*57:01. The assay is described as above. The settings on record: source organism: Yersinia pestis CA88-4125.
The target of another assay is HLA-B*39:01. Described as above. The following applies: source organism: Yersinia pestis CA88-4125.
The target in assay [15] is HLA-A*02:11. The assay is described as above. The following applies: source organism: Yersinia pestis CA88-4125.
In assay [16] the target is HLA-B*18:01. The description is as above. The settings on record: source organism: Yersinia pestis CA88-4125.
In a further assay the target is HLA-B*51:01. The assay is described as above. The settings on record: source organism: Yersinia pestis CA88-4125.
A further assay deals with HLA-A*66:01. Description: IEDB peptide-MHC binding, purified MHC/competitive/fluorescence; filed as Kd, often an IC50 or EC50 that approximates it; ≥ and ≤ were set here for values at or beyond the usual limits of such assays. The settings on record: source organism: Yersinia pestis CO92.
A further assay has as its target HLA-B*08:01. The assay is described as above. The settings on record: source organism: Yersinia pestis CO92.
The target in a further assay is HLA-A*30:02. The assay is described as above. The settings on record: source organism: Yersinia pestis CO92.
In a further assay the target is HLA-B*53:01. The assay is described as above. The settings on record: source organism: Yersinia pestis CO92.
The target in a further assay is HLA-B*14:02. The description is as above. The settings on record: source organism: Yersinia pestis CO92.
The target in another assay is HLA-A*23:01. The assay is described as above. The following applies: source organism: Yersinia pestis CO92.
Another assay has as its target HLA-B*44:02. The assay is described as above. The following applies: source organism: Yersinia pestis CO92.
Where [17] appears, read: source organism: Listeria monocytogenes.
Where [18] appears, read: source organism: Corynebacterium glutamicum ATCC 13032.
The mark [19] stands for this setting: source organism: Yersinia pestis CA88-4125.
The mark [20] stands for this setting: source organism: Yersinia pestis CO92.

Regarding ALVSEVTEV, the Kd with HLA-A*02:01 [1] (setting [17]) is 0.0797 µM; with HLA-A*69:01 (setting [17]) it was 1.92 µM; in the assay with HLA-A*02:16 [2], 0.002 µM; with HLA-A*02:50 (source organism: Listeria monocytogenes EGD-e) it was at most 0.0001 µM.
Consider HLPELIWRS, for which the Kd with HLA-A*24:02 was at least 20 µM; with HLA-A*01:01 (setting [18]), at least 20 µM; in the assay with HLA-B*46:01 [3], at least 20 µM; in the assay with HLA-A*02:01 [4], 0.976 µM; with HLA-B*27:05 (setting [18]), at least 20 µM; with HLA-A*26:01 [5] it was at least 20 µM. In addition, the Kd is at least 20 µM with HLA-B*35:01; at least 20 µM with HLA-A*11:01 (setting [18]); at least 20 µM with HLA-B*40:01 (setting [18]); 0.0022 µM with HLA-A*02:06 [6]; at least 20 µM in the assay with HLA-B*15:01; 0.097 µM with HLA-A*02:16 [7]. Also, the Kd is 0.0136 µM with HLA-A*02:50 (setting [18]); at least 20 µM with HLA-A*30:01 (setting [18]); at least 20 µM with HLA-B*07:02 (setting [18]); at least 20 µM in the assay with HLA-A*03:01 [8]; at least 20 µM with HLA-A*31:01; at least 20 µM with HLA-B*58:01 (setting [18]). For the same sequence, the Kd with HLA-A*02:19 is at least 20 µM; with HLA-A*02:12, 0.8 µM; in the assay with HLA-A*02:11 [9] it was 0.0267 µM; with HLA-A*02:03, 0.95 µM; with HLA-B*18:01 [10], at least 20 µM.
With QQRPDLILV, the Kd was 0.089 µM with HLA-A*29:02; at least 20 µM with HLA-A*24:03; at least 20 µM with HLA-B*46:01 [11]; 3.43 µM in the assay with HLA-A*02:01 [1] (setting [19]); at least 20 µM with HLA-B*27:03; at least 20 µM in the assay with HLA-A*26:01 [12]. Further, the Kd is at least 20 µM with HLA-A*69:01 (setting [19]); 0.17 µM with HLA-A*02:06 [13]; at least 20 µM with HLA-A*03:01 [14]; at least 20 µM with HLA-B*57:01; at least 20 µM with HLA-B*39:01; at least 20 µM with HLA-A*02:11 [15]. Moreover, the Kd with HLA-B*18:01 [16] is at least 20 µM; in the assay with HLA-B*51:01 it was at least 20 µM; with HLA-A*01:01 (setting [20]), at least 5 µM; with HLA-A*66:01, at least 5 µM; with HLA-B*27:05 (setting [20]), at least 5 µM; with HLA-A*11:01 (setting [20]) it was at least 5 µM. Moreover, the Kd was at least 5 µM in the assay with HLA-B*08:01; at least 5 µM in the assay with HLA-B*40:01 (setting [20]); at least 5 µM in the assay with HLA-A*30:01 (setting [20]); at least 20 µM with HLA-A*30:02; at least 5 µM with HLA-B*07:02 (setting [20]); at least 5 µM with HLA-B*58:01 (setting [20]). Besides, the Kd with HLA-B*53:01, with HLA-B*14:02, in the assay with HLA-A*23:01 and with HLA-B*44:02 was at least 5 µM in each case.

Broadly, the Kd is the constant that tells how readily two partners part at equilibrium. Higher therefore signals weaker binding.

(Values after the Immune Epitope Database (IEDB).)
